Substitutions are numbered along the chain they refer to. In names and notes the source's numbering stands. Like-named read-outs stand apart in the source and are kept apart here. Ends that are not written are not given here.
T1: GR (Mus musculus, UniProt P06537)
T1 construct: from tissue; host or cells: mouse brain
T1 sequence (P06537 1-792): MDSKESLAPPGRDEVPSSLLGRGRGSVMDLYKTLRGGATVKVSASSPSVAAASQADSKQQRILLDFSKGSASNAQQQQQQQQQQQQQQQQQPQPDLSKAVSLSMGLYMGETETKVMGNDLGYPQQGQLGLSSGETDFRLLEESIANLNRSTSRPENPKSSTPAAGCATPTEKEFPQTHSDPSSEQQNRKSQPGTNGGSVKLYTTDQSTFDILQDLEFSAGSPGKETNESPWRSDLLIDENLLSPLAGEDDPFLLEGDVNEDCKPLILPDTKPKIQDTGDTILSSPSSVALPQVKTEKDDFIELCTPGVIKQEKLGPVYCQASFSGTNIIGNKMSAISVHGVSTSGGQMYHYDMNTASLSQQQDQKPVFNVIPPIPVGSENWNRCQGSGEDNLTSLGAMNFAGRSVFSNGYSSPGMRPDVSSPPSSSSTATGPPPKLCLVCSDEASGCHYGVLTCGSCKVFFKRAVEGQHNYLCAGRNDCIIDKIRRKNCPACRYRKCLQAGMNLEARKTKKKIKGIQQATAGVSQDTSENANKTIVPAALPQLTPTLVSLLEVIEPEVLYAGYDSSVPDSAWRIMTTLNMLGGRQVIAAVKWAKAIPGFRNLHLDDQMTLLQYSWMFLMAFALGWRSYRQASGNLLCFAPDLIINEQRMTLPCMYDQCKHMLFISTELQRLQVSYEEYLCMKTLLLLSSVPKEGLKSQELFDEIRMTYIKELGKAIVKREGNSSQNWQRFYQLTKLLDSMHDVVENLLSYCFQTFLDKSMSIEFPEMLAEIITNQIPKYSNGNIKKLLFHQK

T2: FKBP51-TPR (Homo sapiens, UniProt Q13451)
T2 construct: made in house; host or cells: bacteria
T2 sequence (Q13451 258-457): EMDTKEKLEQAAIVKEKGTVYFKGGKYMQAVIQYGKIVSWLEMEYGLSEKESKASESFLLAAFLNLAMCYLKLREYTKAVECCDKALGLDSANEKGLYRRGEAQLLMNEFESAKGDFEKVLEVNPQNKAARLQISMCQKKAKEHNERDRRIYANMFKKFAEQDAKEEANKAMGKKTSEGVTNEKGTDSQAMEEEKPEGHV

T3: GFP-FKBP51 (Homo sapiens, UniProt Q13451)
T3 sequence (Q13451 1-457): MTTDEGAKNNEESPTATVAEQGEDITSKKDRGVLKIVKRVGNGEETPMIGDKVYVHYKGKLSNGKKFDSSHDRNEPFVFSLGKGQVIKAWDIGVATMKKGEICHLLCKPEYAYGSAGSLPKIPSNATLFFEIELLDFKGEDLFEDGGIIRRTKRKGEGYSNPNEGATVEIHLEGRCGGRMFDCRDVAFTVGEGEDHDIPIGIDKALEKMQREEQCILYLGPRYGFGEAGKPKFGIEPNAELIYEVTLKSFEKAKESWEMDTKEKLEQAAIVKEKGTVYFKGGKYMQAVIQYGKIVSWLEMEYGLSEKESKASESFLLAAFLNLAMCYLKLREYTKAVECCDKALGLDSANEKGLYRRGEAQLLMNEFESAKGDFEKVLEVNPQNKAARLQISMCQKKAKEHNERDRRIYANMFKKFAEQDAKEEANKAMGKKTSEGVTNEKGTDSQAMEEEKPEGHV

B1: GST-TPR: GST-fusion protein of FKBP51 tetratricopeptide repeat (TPR) domain (protein)
chain: T2 sequence (Q13451 258-457)
modifications: left off: a dimerising Fc or GST
notes: GST-fusion protein of FKBP51 tetratricopeptide repeat (TPR) domain
B2: S211A GR: non-phosphorylated GR mutant, Flag-tagged (protein)
chain: MDSKESLTPGREENPSSVLAQERGDVMDFYKTLRGGATVKVSASSPSLAVASQSDSKQRRLLVDFPKGSVSNAQQPDLSKAVSLSMGLYMGETETKVMGNDLGFPQQGQISLSSGETDLKLLEESIANLNRSTSVPENPKSSASTAVSAAPTEKEFPKTHSDVSSEQQHLKGQTGTNGGNVKLYTTDQSTFDILQDLEFSSGSPGKETNEAPWRSDLLIDENCLLSPLAGEDDSFLLEGNSNEDCKPLILPDTKPKIKDNGDLVLSSPSNVTLPQVKTEKEDFIELCTPGVIKQEKLGTVYCQASFPGANIIGNKMSAISVHGVSTSGGQMYHYDMNTASLSQQQDQKPIFNVIPPIPVGSENWNRCQGSGDDNLTSLGTLNFPGRTVFSNGYSSPSMRPDVSSPPSSSSTATTGPPPKLCLVCSDEASGCHYGVLTCGSCKVFFKRAVEGQHNYLCAGRNDCIIDKIRRKNCPACRYRKCLQAGMNLEARKTKKKIKGIQQATTGVSQETSENPGNKTIVPATLPQLTPTLVSLLEVIEPEVLYAGYDSSVPDSTWRIMTTLNMLGGRQVIAAVKWAKAIPGFRNLHLDDQMTLLQYSWMFLMAFALGWRSYRQSSANLLCFAPDLIINEQRMTLPCMYDQCKHMLYVSSELHRLQVSYEEYLCMKTLLLLSSVPKDGLKSQELFDEIRMTYIKELGKAIVKREGNSSQNWQRFYQLTKLLDSMHEVVENLLNYCFQTFLDKTMSIEFPEMLAEIITNQIPKYSNGNIKKLLFHQK
modifications: Flag tag; Amino Acid Sequence of S211A GR Mutant (non-phosphorylated GR mutant)
notes: non-phosphorylated GR mutant, Flag-tagged
B3: S211E GR: phosphomimetic GR mutant, Flag-tagged (protein)
chain: B2 chain with A211E
modifications: Flag tag; Amino Acid Sequence of S211E GR Mutant (phosphomimetic GR mutant)
notes: phosphomimetic GR mutant, Flag-tagged

Assays:
GR = target: T1, GR; experiment: GST pull-down of GR by GST-FKBP51 fragments in mouse brain tissue; assay type: binding
Source text: The present inventors identified that if increased GR-FKBP51 complex levels are part of the pathophysiology of PTSD, then disrupting the complex may rescue behaviors related to PTSD. To develop an agent (in this example, a peptide-based agent) capable of blocking the GR-FKBP51 interaction, experiments were first performed to identify the regions of the GR that are important to bind FKBP51 (and vice versa). Initially, GST-fusion proteins were used encoding the amino-terminus (NT) of GR (GRNT) and the carboxyl-terminus (CT) of GR (GRCT) for affinity purification. […] Extending this strategy, GRNT fragments were examined (see FIG. 8, where the 6 tested GRNT fragments, NT-1, NT-2, NT-3, NT-4, NT-5, and NT-6 are shown). […] Similarly, it was determined that the TPR (tetratricopeptide repeat) domains of FKBP51 bind GR (FIG. 2D). In these studies, GST-fusion proteins of 3 different portions of the FKBP51 protein were prepared (FK1, FK2, and TPR, see FIG. 9) and tested. The TPR fragment was identified as containing the relevant interaction region.
GST-fusion proteins encoding truncated GR fragments were amplified by PCR from full-length human cDNA clones. All constructs were sequenced to confirm the absence of PCR-generated errors. […]

FKBP51-TPR = target: T2, FKBP51-TPR; experiment: Surface plasmon resonance, binding of FKBP51 TPR domain to GR and its phosphorylation mutants; conditions: Flag-tagged GR immobilized on sensor chip, 25° C.
Experimental: The binding of FKBP51 TPR domain to GR and its phosphorylation mutants was determined by surface plasmon resonance using a Reichert SR7500DC instrument. Experiments were conducted at 25° C. with 2000 RU HEK293 expressed FLAG-tagged GR bound onto a FLAG antibody-coated Dextran 50,000 Da chip. Running buffer (PBS, pH 7.4 with 0.005% Tween 20) was used with a flow rate of 25 μl/min. With association time of 300s and dissociation of 240s, binding signals were determined by injecting various concentrations of the GST-FKBP51_TPR.

GFP-FKBP51 = target: T3, GFP-FKBP51; experiment: Co-immunoprecipitation of Flag-GR (WT, S211A, S211E) with GFP-FKBP51 in transfected HEK293T cells; assay type: cell-based; conditions: HEK293T cells transfected with GR variant and GFP-FKBP51, n=3
Source text: Thus, it was investigated whether the increased GR-FKBP51 seen in fear-conditioned mice and PTSD patients was associated with altered GR S211 phosphorylation. […] Similar results were also seen in samples from PTSD patients (FIG. 5C n=12, p<0.05, t-test). To probe further into how S211 phosphorylation and GR-FKBP51 are related, two GR mutants were generated (see SEQ ID NOs: 10 (S211A) and 11 (S211E) of FIG. 10). S211A is a non-phosphorylated GR mutant and S211E is phosphomimetic GR mutant.
HEK293T cells were maintained as a monolayer culture at 37° C. in Dulbecco's Modified Eagle Medium (DMEM) (Invitrogen) supplemented with 10% fetal bovine serum (Gibco). Cells were grown to 90% confluence before being transiently transfected with DNA constructs by X-treme GENE 9 transfection reagent (Roche), following the manufacturer's instructions. About 24-48 hrs after transfection, cells were used for experiments.
Co-immunoprecipitation and Western blot analyses were performed as previously described.^24, 25, 26 For co-immunoprecipitation, 500˜1000 μg solubilized protein was extracted from whole mouse brain and incubated with primary antibody or control IgG (2˜4 μg) for 4 hrs at 4° C., followed by the addition of 25 μl protein A/G plus agarose (Santa Cruz Biotechnology) for 12 hrs. Pellets were washed, boiled for 5 min in SDS sample buffer and subjected to SDS-PAGE. 50˜100 μg of total protein extract was used as control in each experiment. After transfer of proteins into nitrocellulose, membranes were Western blotted with the primary antibodies. The intensity of protein level was quantified by densitometry (software: ImageLab, Bio-Rad).
Mutants of Flag-GR and GST-GR-NT were created with the QuickChange site-directed mutagenesis kit (Stratagene, La Jolla, Calif.). All mutants were confirmed by DNA sequencing.

[1] = read-out: KD for binding FKBP51 (SPR)

Row | Molecule | pull-down of GR by GST-FKBP51 fragment, Western blot (GR) | Kd (FKBP51-TPR; [1]) [µM] | GR-FKBP51 complex level (Flag-GR co-immunoprecipitated with GFP-FKBP51) compared to wild-type GR (GFP-FKBP51) | GR-FKBP51 complex level (Flag-GR co-immunoprecipitated with GFP-FKBP51) compared to wild-type GR (GFP-FKBP51; listed as S211A-GR) | Kd (FKBP51-TPR; figure legend values, read-out: KD for binding FKBP51-TPR (SPR)) [µM]
1 | GST-TPR3: GST-fusion protein of FKBP51 TPR fragment 3 (GEAQLLMNEFESAKGDFEKVLEVNPQNKAARLQISMCQKKAKEHNERDRR; also: GST fusion protein) | can “pull-down” |  |  |  | 
2 | B1 | can “pull-down” |  |  |  | 
3 | B2 |  | 0.412 | significantly higher | higher levels of the GR-FKBP51 complex | 
4 | B3 |  | 3.9 ± 0.01 | no significant difference |  | 3.9
